In the DeepSol protein solubility set:

Test: soluble on expression in E. coli; label from the status in PepcDB or PDB records

| Sequence | soluble on expression in E. coli |
| --- | --- |
| MVIRSVSRFLQGNNWPDVSKIYKTIVEKWRNENPDQNAHFSLEVTGPTGTSGVVTVKPSEEIGKSEKVSEEKSSEKPSIEVATTSLKRYPPAHMRVRDKLVGILSASGLRIGLPSSVSLVFSRSDLGSATSSTERICASSQEVASTMSLPDPSQSGITDSFPRVFKEFDFLEAEHDSVSETADSCFGWLSTMRPTREKDDERASIRSSLRNLSSGGQGGEEEEEEPEEDEESESHEEEENSESDDLPRKVEDDDLEEEDEDEEERTPCPSECCDDDREDVEMMLRQDIEAYASRGGSVAASSMADDDLRSRLTNNIVSISSQMTEHRHLEEENTSVDGSSVCAYSNASMLASEYYPNRTRSLRIQCSHHLDSRIEREFSMSVNEINESNDCNLLAYGTLLSTQLYKSSCGKVCALLRDASHILTNRAMSRSFASAQETLCNVVDIPFLFVTEQFLRNSPICQRLKFTLNELKEHWETFDERRDQCQKNTTNFGRKYKLFEILDFRKKNLKGINSLRSAYKLSALGGSTSSFSLTSELDLGKLLNKLVFQVKLMIDALKDMSDAVKNSTSSQTYSLSPAILEHHRELLMCASDDAASSVNSSLSRLNIDDSISRSQHSCDSLVLLLANKRYTQALQAVRQLRRTYGEEYGCCETVDVDVLLLLFCRSHSLKAWALVGASSEELTRQSELLREANAELASCLRRNAQSLQNMERMTPSMGSASMTESFAQLPSSSDHYD | not soluble |
| MAEYSMKELIEWNEKIEEIARAEGLDYYEQEFEICSYEDMIAYETYVGMPSHYPHWSYGKNYERIKTLYKYNLTGLPYEMVINSDPCIAYLMKDNTLLLQILTMAHVYGHNDFFKNNRLFKLGTRAKDTVDMFKNHADRIREYIQDPGIGYAKVEKILNAAHAIRYQISRNIGVRVLSQEEKKKELLERYNKPKSEYPLLEPKSKEEEAPPDFKKIPVEPEEDMLLFFMNYSKLTDWERDILSIVREETLYFLPQIETKIMNEGWASFWHYNILNKLNLEQGLHFEFLKRHNQVIRPVLGQLNPYYIGFRIFEDLKKRYEDDPKKIFEVREVERDQSFIRRYLTRELCEEMNLFEYAKIGNSYIVTEVSDEEGWKKIRDTIANNVGLAGIPVIKVAEWVQKDNTLVLEHEYDGREIELSYAYETMKHIVDLWDGKVMLGTVIDNKKKIIVCNEQKKVTLTDG | not soluble |
| MSLKEESLLEYYAQDSFYAEYSSGTGYEIQERALRSTFSRYMKELHKRNVTGGKLLEIGCGFGFLLDEAKNYFDYRIGTDFSSEAVSHAKKYADNVYCGGLEAIPSDTSTKFDCVITFSVLEHVYNPNTFIQEIQNYMAPNGSLVVSTPFIGGMWYKILGKKWSFFIPPEHVCLYNHNSISQLLKQNGFKNIEMFISSHAWPVAGFLSKMGMRKLSSMTLKLKIGDVPLFVPFTIINIIGSKEGHHHHHH | not soluble |
| SNAWIVPKNSVLFAMYGSIGETAINKIEVATNQAILGIIPKDNILESEFLYYILAKNKNYYSKLGMQTTQKNLNAQIVKSFKIPLPPLEEQKQIAKILTKI | not soluble |
| MGSDKIHHHHHHMDVIIDKNSGYCFGVEFAIQMAEDEMATGEPLFCLGDIVHNSMEVERLAKKGLKIIDREELKKLSDCKVLIRAHGEPPETYQLALENNIELVDASCPVVLKLQNRVKASFDAIDSKDGQIVIYGQEGHAEVIGIAGQTGDKAIVITTEKDLDKIDFEKPVTLYSQTTKSTQGFYKMKDLIEARVAEAGKNVDENFEYNDSICRQVSNREPQLRKFSKEFDVVIFVSGKKSSNGKALYGVCKQENERSYFVENETEIEPSWIRATDNVGICGATSTPMWLMEKVQNYIQAHSWN | not soluble |
| MPDYDLITILGPTASGKTPFAAALAHELNTEIISADSRQIYRGMDLGTGKDLADYTVDGHPIPYHLIDIADPGYKYNVFEYQRDFLISYESIKQKGCLPVLCGGTGMYLESVLKGYKLMPVPENPELRARLANHSLEELTEILKQYKTLHNSTDVDTVKRAIRAIEIEEYYAVHPVPEREFPKLNSLIIGVDIDRELRREKITRRLKQRLDEGMVDEVRRLTEQGISPDDLIYYGLEYKFLTLYVIGKLTYEEMFTELETAIHQFAKRQMTWFRGMERRGFTIHWVSAELPMEEKIAFVIEKLRGNLEHHHHHH | soluble |
| MAHHHHHHMSTEVSSGSNDGPSFHHHIQDAVHMIWNNQCSEAEEILFPYKEIHPRYALEYANKYLVQTLMNSTNESREILLELFKVADSLASAAKYSEPMFDFDVENDGDGTGMSMCLPSKAERKISKKSFNGRRKAAEKAGQSFVDNWKLECDVIYADALLMRSVCQLMMNSYFKGGVNLRRTWGLYHKLIQVVEADRTNQIPNELKMCVKYGTGAFYAFLALVPANLMRLLNVIGFISDKELGEQYLTEVFESNGVRSPFAALVLCTLYLFLPTGLGRVEETLAKAKRILDAMNQKYEHNTYFYGYSNFYHRKRGETAEALMAIQLAETNAERAGLVPILIRYLHADTLFMDLRFEEARDRYAALLDHLAKTKESFAYTGQVVLSLAACFVMLGDDAQAIQWLKKVGSMYNSRSKNDANSPKFASRVLANPRLLPLCGVYMLYINRDLAHMKVEQAERLLEELTRVTKGKDLSGPEPENMFTLFVGVIHKGCDRIDEAFGYMSKIFANEKRVPNDSMVLPYAYYEAGELEYRRGNYENAKTLFTKGQSLKGDGNETLMNRYNIALKQLKRTMEERKGA | not soluble |
| MSLETDDQYYRAIKKIKEAAEASNRAYLTSSKLADMLGISQQSASRIIIDLEKNGYITRTVTKRGQILNITEKGLDVLYTEFADLSRILAIKNNVVITGTVTSGMGEGRYYVARKQYIIQFQEKLGIIPYLGTLNIKVDQASLPELRKIRGFRGIHIEGFKTEDRTFGSVKAFPAKIQNIPCFVIMPERTVYTDVIEIISDKYLREEINLHDGDRVSVEVYTEGHHHHHH | soluble |
| SLGEVPSPQELIEVADAAPNAASGVLKLYRAYREQAQRLSDLSDLLAREGHETALSSTRLPIDEVRHVFENRPAYFHAIDAAAEELHKQLSTGDDLASGLRAWLQKNHGIVVRTLPVHAMPNLRRRYDRHSMRLFLSERLSQPDQLREMAMETCLLALREEIGTELEALGLKGEEARRIARFELARYAAHALMMPYGAFLAAAQRAKYDLDVLRSRFNVSFEQAANRLVSLQRPTTAAIPFFLMEIDNAGNRFRLAGAGGFPRARFGGLCPRLNIHAAFAQPGQVLVESVEMPDGDAFLTVSRTLEGPQAGFGERVRRTAVLLGCDLGQAGETVYGPAASGAAPVAIGPSCRLCERQGCLSRAEAPLTRPLGLDEMVTGLSVFDFQ | soluble |
| MGSDKIHHHHHHMVVNLEGKISKIGQNMKSSIIREILKFAADKDAISFGGGVPDPETFPRKELAEIAKEIIEKEYHYTLQYSTTEGDPVLKQQILKLLERMYGITGLDEDNLIFTVGSQQALDLIGKLFLDDESYCVLDDPAYLGAINAFRQYLANFVVVPLEDDGMDLNVLERKLSEFDKNGKIKQVKFIYVVSNFHNPAGVTTSLEKRKALVEIAEKYDLFIVEDDPYGALRYEGETVDPIFKIGGPERVVLLNTFSKVLAPGLRIGMVAGSKEFIRKIVQAKQSADLCSPAITHRLAARYLERYDLLEQLKPTIELYRRKRTVMLNALEEYFSDIPGVKWVKSEGGLFIWLTLPEGFDTWEMFEYAKRKKVFYVPGRVFKVYDEPSPSMRLSFCLPPDEKIVEGIKRLREVVLEYGKEKHLL | soluble |
| MGSDKIHHHHHHMNILVDLTQIPIQKVGVGVYAKETFKFPNEDANELFFLLQDDDNDLRSTFLKSKIILVKSKFFRFFFCRFLLEQFYIPFLCYKYKINILHSLHYSFPIFLFKVKRIVTIHDLTFFIHPSVHTFIKRYYFRLFIKLACRYADRLICVSESTKKDLERICGRRSVSIDVIPLSCSPKMQVGEQELELVKKKFGVVSQYMLFIGTLEPRKNILNLINAFYKFSQKNRDYSLVIIGKKGWFYESIFKLVEELHLERSVVFTGFVTTKEKFILLSGAHSFIYPSIYEGFGLPVLEAITYGIPTITSKLSSLPEVAGNAALYINPYDVQSISDAIESVNCDEETRRKLIKNSEKQRLKYSWKKTANLTYSLYNRCGSI | not soluble |
| ASGSMQGDPDVLRLLNEQLTSELTAINQYFLHSKMQDNWGFTELAAHTRAESFDEMRHAEEITDRILLLDGLPNYQRIGSLRIGQTLREQFEADLAIEYDVLNRLKPGIVMCREKQDTTSAVLLEKIVADEEEHIDYLETQLELMDKLGEELYSAQCVSRPPTSAWSHPQFEK | soluble |
| SPTNLANGLSSLLKPLKFFHLPIDEISLMLALSLRFVPTLMDETGKIMNAQRARGVDFGEGNIFQQMRSLVPIFIPQFIASFNRADELATAMESRGYRGAAKRTKFNRLKFK | not soluble |
